The source of these data is patent US20250250330A1 (REVOPSIS THERAPEUTICS, published 2025).

Broadly, the EC50 is the midpoint of the concentration-response curve. One may read the IC50 as the concentration needed to halve the response being measured.

Assay [1] has as its target T1, Recombinant human ANG-2 (R&D Systems, Cat #623-AN-025/CF) (human, UniProt O15123 19-496, limits assumed).
T1 construct: also called rhANG-2
T1 sequence (looked up): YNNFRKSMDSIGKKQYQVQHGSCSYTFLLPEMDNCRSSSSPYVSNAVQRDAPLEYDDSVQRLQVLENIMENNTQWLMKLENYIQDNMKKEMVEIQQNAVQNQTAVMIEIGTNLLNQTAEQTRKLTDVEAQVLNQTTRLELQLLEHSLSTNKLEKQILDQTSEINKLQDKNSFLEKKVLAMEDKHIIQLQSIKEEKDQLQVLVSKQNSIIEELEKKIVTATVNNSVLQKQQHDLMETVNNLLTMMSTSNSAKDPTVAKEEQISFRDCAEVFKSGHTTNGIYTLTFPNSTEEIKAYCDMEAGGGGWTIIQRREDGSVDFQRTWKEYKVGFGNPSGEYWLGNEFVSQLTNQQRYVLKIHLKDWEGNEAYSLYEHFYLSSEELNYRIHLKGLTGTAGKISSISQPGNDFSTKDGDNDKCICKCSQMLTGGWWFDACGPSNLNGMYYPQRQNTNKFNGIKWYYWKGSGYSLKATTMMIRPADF
Description: ELISA on rhANG-2 by an independent team; average of three values. In general terms: ELISA stands for enzyme-linked immunosorbent assay.

Assay [2] concerns the target T2, Recombinant human VEGF165 (Peprotech, Cat #100-20) (human, UniProt P15692-4 27-191).
T2 construct: Bought protein; also called rhVEGF165; rh VEGF165
Description: ELISA; target coated at 1 ug/mL, anti-human IgG Fc-HRP detection. On the procedure: Different target proteins were used to coat Corning 9017 medium binding plates at 1 μg/mL and 100 μl per well. Donkey anti-human IgG Fcγ-HRP was used for detection. OD450 nm readings were measured by Victor 3.

Assay [3] concerns the target T2, Recombinant human VEGF165 (Peprotech, …). Nature of the assay: competition ELISA; rhVEGF165 coated, competitor biotinylated rhVEGF R2/KDR. How it is done: The mixture was added to ELISA binding plates which contained rhVEGF₁₆₅ coating. […] The receptor binding was detected by HRP-conjugated streptavidin (Jackson ImmunoResearch Laboratories, Cat #016-030-084) and visualized by TMB substrate.

Assay [4] shares this target. Nature of the assay: ELISA; rhVEGF165 coated at 1 ug/mL, anti-human IgG Fc-HRP detection (RO-101_Sample 1). On the procedure: Donkey anti-human IgG Fcγ-HRP (Jackson ImmunoResearch Laboratories, Cat #709-035-098) was used for detection and visualized by TMB substrate. OD450 nm readings were measured by Victor 3 (PerkinElmer 1420 Multilabel Counter).
The target of assay [5] is T3, His-tagged recombinant human ANG-2 (AcroBiosystems, Cat #AN2-H52H4) (human, UniProt O15123 275-496).
T3 construct: also called rhANG-2; rhANG-2-His; not shown: His tag
T3 sequence (looked up): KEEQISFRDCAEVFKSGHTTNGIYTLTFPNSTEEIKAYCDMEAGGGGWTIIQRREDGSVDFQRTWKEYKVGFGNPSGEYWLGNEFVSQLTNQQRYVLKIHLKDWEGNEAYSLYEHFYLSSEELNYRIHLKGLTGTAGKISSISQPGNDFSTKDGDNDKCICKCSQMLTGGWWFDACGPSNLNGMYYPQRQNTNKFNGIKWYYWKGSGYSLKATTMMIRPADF
Nature of the assay: ELISA on rhANG-2; biotinylated anti-VpreB antibody and streptavidin-HRP detection; SgG format; anti-VpreB detection. How it is done: SgG1 was diluted in blocking buffer at a starting concentration of 10 nM. Sab and scSv were diluted in blocking buffer at a starting concentration of 100 nM. They were then 1:3 serial diluted.

B1: RO-101 VEGF/ANG-2 bispecific surrobody (bispecific antibody, human IgG1, L234A L235A)
heavy 1: not shown
heavy 2: EVQLVESGGGLVKPGGSLRLSCAASGFTFSSYGMHWVRQAPGKGLEWVAGISADSGDKNYADSVKGRFTISRDNAKNSLYLQMNSLRAEDTAVYYCAKEFISWIYTFDYLDYWGQGTLVTVSSASTKGPSVFPLAPSSKSTSGGTAALGCLVKDYFPEPVTVSWNSGALTSGVHTFPAVLQSSGLYSLSSVVTVPSSSLGTQTYICNVNHKPSNTKVDKKVEPKSCDKTHTCPPCPAPEAAGGPSVFLFPPKPKDTLMISRTPEVTCVVVDVSHEDPEVKFNWYVDGVEVHNAKTKPREEQYNSTYRVVSVLTVLHQDWLNGKEYKCKVSNKALPAPIEKTISKAKGQPREPQVCTLPPSRDELTKNQVSLSCAVKGFYPSDIAVEWESNGQPENNYKTTPPVLDSDGSFFLVSKLTVDKSRWQQGNVFSCSVMHEALHNHYTQKSLSLSPG
light: QPVLHQPPAMSSALGTTIRLTCTLRNDHDIGVYSVYWYQQRPGHPPRFLLRYFSQSDKSQGPQVPPRFSGSKDVARNRGYLSISELQPEDEAMYYCAMGARSSVTHVFGSGTQLTVLSQPKATPSVTLFPPSSEELQANKATLVCLMNDFYPGILTVTWKADGTPITQGVEMTTPSKQSNNKYAASSYLSLTPEQWRSRRSYSCQVMHEGSTVEKTVAPAECS
notes: Format SgG1; also called Sample 1
In the case of B1, in assay [1], the “average EC50” value was found to be 0.0491 nM. Moreover, the values for the concentration for a half-maximal effect (EC50) in assay [2], in assay [4] and in assay [5] were 0.0122 nM, 0.0135 nM and 0.0257 nM, respectively. In addition, in assay [3], the IC50 worked out at 1.99 nM.
